Laboratory results published in the DeepSol protein solubility set.

Experiment: soluble on expression in E. coli; label from the status in PepcDB or PDB records

Row | Sequence | soluble on expression in E. coli
1 | MAHHHHHHMKGNKGANIAYPDKYHKVTEFFDREYGDLETCTKLNDCQKLLFYALRQQVEHGPCTSGAPFIWQVRERAKHDAWKQLGAMTKFEAMVHFVTHLEECIGGNVDWGEKLRDLNGMRDQQRVGVENGTGESNANEQTERGVSEAHWDADVQAHLQPSAENIEYLAREVMRLRGELQQVRPNRVVPTPIVVPPRKPIDYVSTKNIVPPARTLATVATRTALLNAQTTNNLVERQPQGWGEWFGL | not soluble
2 | MDAQSYMPVPPGVGMEENFFSLDDILLSHERLPCRTESAFPRLGFLEKSSDSRDIPEGTKMEMPLWLAKGLYERKRRVLSVELPKVYREGWRTVFGADPTVVDLYKMGPYYYGLGSQMLHFESPENPEIANTILQTFIGRFRRTMDSSQNAYNEDTSALVERLDYLERSLFKAGQSGLNNFQLWEKGRSSHLTASSLVINYRKRKMTDLQA | not soluble
3 | MYKHIVKRGETIASIARDYRTSVEALLRANGLTAASVIFPGQEIVIPHLPPKGSIPYTIHISISRRQLTLKHRGRTIRTYPIGVGKMVTATPVGDFVIVNRQPNPGGPFGAMWLSLSKIHYGIHGTNDPSSIGKYVSKGCIRMHNKDVLELASIVPNGTEVFIRP | not soluble
4 | MGSDKIHHHHHHMPVMDRAAMRTMATLQPSCMRWLCTTPSILDAAKAGWPISWAATPDSPATVTIRQFQASTCCRKKTFDVVVNTDVLEHVPEAELDCVLRDFRKLSTNAIIIPHLAKATRILPNGENAHCTIKTPSEWAQVFKRHYAHVYELPHHSAVHALFLCGDQERDVTALRGILEQYVAAKNEVRHHLLPLGKRIEKAIRLIRGKDINR | not soluble
5 | MNTQSPPSPHDPHGAAALPFRLWTAEERRASLDTALREWRDGEDVWVYGYGSLIWRPDFDFVERRLATLHGHHRALCLWSRVNRGTPECPGLVFGLDRGGSCRGVVYRLAGRQVPDYFPALWDREMSTGAYLPRWLRCATEHGPVNALVFIMNRANPAYIRALPEPELLAIVRRASGRYGPCTEYVVQTAQALRQAGIRDARLEQIARQLEADVHPLGVLEHHHHHH | not soluble
6 | MAKERALTLEALRVMDAIDRRGSFAAAADELGRVPSALSYTMQKLEEELDVVLFDRSGHRTKFTNVGRMLLERGRVLLEAADKLTTDAEALARGWETHLTIVTEALVPTPAFFPLIDKLAAKANTQLAIITEVLAGAWERLEQGRADIVIAPDMHFRSSSEINSRKLYTLMNVYVAAPDHPIHQEPEPLSEVTRVKYRGIAVADTARERPVLTVQLLDKQPRLTVSTIEDKRQALLAGLGVATMPYPMVEKDIAEGRLRVVSPESTSEIDIIMAWRRDSMGEAKSWCLREIPKLFNGK | soluble
7 | MIHEASIQHGSFGKMVADWPQEKITELWAYLKKHGSRLGGNTGPYTLRQMGADTFILSNDVEAYLRNCKIIEGGKDTKKSHDAATQAFMQWQKESGRSLTEISQIIAFSTGDNRL | not soluble
8 | MEVDCRVISRGKGRGPVLVSTEPLSFLGGVDPGTGRVIDQKHPLHGRSIRGKVLLIPGGKGSTVGSYVIFQMAKNETAPAAIICLNAEPIIATGAIMAGIPMVDRPSEDLLGLLEDSMEVEVDADEGKIRF | soluble
9 | MADTIEVDGKQFAVDEEGYLSNLNDWVPGVADVMAKQDNLELTEEHWDIINFLREYYEEYQIAPAVRVLTKAVGKKLGKEKGNSKYLYSLFPYGPAKQACRFAGLPKPTGCV | soluble
10 | MIITQGPQFQGKASKRLHVMAKPIGAVCNIDCSYCYYLSKEDLLEYKKGCSPQMDDETLETYIRQYIEGQNTPEIIFSWQGGEPTLLGLDYFKKIVEFQKKYQPEGILISNDLQTNGTLLTDKWCEFLAENNFLVGLSIDGPEMLHNAYRTNKAGRGTFKQVMNAVELLHKHNVKFATLTCVNNLTSRNPLEVYRFLRDVVKSPQMQFIPIVEQKTFRTVAPQTEQIAAQLRQGDKRLIPGNKESIMEPWCVSDEAWGNFLIAVFDEWTQHDLGKVFVQYFEASVETWMGRKNPLCTLGEICGKGLAMEHNGDVFACDHYVYPEYKIGNIHNEELDTLAFSRKQQEFGFAKSKTLTTQCQKCEYKFACHGECPKNRFIKTRDGEPGLNYLCAGWKKFFAHADKSIAYILKMLGNPVQHGKYSDAKMQQVHQNAFPTKF | not soluble
